Legend:
GST-TRF2 = GST-TRF2 (human, UniProt Q15554 43-542); experiment: EMSA
GST-TRF1 = GST-TRF1 (human, UniProt P54274 1-439); experiment: EMSA
Sequence of GST-TRF1 (P54274 whole entry): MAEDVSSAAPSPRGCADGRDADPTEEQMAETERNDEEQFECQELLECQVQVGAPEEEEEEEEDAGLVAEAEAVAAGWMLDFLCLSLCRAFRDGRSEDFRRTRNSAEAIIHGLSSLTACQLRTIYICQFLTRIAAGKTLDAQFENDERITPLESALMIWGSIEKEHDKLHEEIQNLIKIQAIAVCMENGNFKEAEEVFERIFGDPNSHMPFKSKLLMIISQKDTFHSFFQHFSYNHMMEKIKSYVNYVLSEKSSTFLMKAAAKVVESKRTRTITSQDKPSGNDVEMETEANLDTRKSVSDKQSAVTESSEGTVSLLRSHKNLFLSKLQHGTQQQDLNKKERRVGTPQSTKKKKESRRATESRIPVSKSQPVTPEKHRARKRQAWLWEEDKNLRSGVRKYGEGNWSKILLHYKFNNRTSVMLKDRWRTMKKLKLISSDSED

Sequence of GST-TRF2 (Q15554 43-542): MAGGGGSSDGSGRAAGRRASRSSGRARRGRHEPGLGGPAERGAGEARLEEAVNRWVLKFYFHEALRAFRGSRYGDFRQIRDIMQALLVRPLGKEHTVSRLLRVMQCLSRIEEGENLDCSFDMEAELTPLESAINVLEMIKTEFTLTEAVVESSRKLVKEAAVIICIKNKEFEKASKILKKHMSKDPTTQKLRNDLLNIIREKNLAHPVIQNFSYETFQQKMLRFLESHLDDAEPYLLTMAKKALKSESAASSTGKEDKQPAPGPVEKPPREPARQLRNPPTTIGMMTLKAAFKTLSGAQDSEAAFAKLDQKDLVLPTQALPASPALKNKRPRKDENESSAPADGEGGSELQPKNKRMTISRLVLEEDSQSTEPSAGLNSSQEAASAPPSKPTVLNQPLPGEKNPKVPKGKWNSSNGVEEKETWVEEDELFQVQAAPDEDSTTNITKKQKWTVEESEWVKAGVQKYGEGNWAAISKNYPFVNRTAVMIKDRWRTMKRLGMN

| Binder | binding result (GST-TRF2) | binding result (GST-TRF1) |
| --- | --- | --- |
| TATCGATAAGCTTGATATCGAATTCCTGCA (ssDNA) [random DNA] | no binding | no binding |
| TTAGGGTTAGGGTTAGGGTTAGGGTTAGGG (ssDNA) [(TTAGGG)5 DNA] | no binding | no binding |
| CCCUAACCCUAACCCUAACCCUAACCCUAA (ssRNA) [(CCCUAA)5 RNA] | no binding | no binding |
| AGAGAUUGCCUGACGUCAGAGAGCUAGCGA (ssRNA) [random RNA] | no binding | no binding |

— publication PMC5808845
